Article PMC4023160
Blank lines part the entries; values can stand above or below the substance they belong to.

Key:
[1] = target: BAP (ClpB with the ClpA tripeptide for ClpP binding), wild type (E. coli | not stated); test: negative-stain EM single-particle reconstruction; BAP(HAP)-ClpP complexes formed in 20 mM Tris-HCl pH 7.5, 20 mM KCl, 15 mM MgCl2, 1 mM DTT, 2 mM ATPγS; stained with 2% uranyl acetate; side views of 2:2 complexes cut into 1:1 halves; sixfold symmetry imposed or none
ClpP protease [2] = target: ClpP protease (UniProt P0A6G7); test: as above
ClpP protease [3] = target: ClpP protease (UniProt P0A6G7); test: HDX-MS; BAP (100 pmol) with ClpP (200 pmol), 3 min at 30°C in low salt buffer A (50 mM Tris pH 7.5, 25 mM KCl, 20 mM MgCl2, 2 mM DTT) with ATPγS, diluted 20-fold into D2O buffer, 60 s exchange; mass of full length BAP
[4] = target: BAP Trap (E279A/E678A) variant (E. coli | not stated); test: cryo-EM structure; BAPtrap-ClpP and ClpB alone, vitrified, in the presence of ATPγS; side views only
[5] = target: HAP (Hsp104 with the ClpA tripeptide for ClpP binding) (S. cerevisiae); test: negative-stain EM single-particle reconstruction; BAP(HAP)-ClpP complexes formed in 20 mM Tris-HCl pH 7.5, 20 mM KCl, 15 mM MgCl2, 1 mM DTT, 2 mM ATPγS; stained with 2% uranyl acetate; side views of 2:2 complexes cut into 1:1 halves; sixfold symmetry imposed or none
[6] = target: BAP-E432A (repressed mutant) (E. coli | not stated); test: as above

Chain of ClpP protease (P0A6G7 15-207): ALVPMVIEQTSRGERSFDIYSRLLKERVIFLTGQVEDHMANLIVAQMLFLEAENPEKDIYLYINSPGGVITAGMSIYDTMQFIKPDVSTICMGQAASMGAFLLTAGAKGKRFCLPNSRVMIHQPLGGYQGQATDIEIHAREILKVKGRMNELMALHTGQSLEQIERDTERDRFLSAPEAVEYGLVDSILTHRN

- stoichiometry N [1]: 6
- stoichiometry N (BAP hexamers per ClpP double-heptamer) (ClpP protease [2]): 2
- amide protons in BAP protected from exchange by ClpP (amide protons) (ClpP protease [3]): 30
Substance: BAP (ClpB with the ClpA tripeptide for ClpP binding), wild type

- stoichiometry N [4]: 6
Substance: BAP Trap (E279A/E678A) variant

- stoichiometry N [5]: 6
Substance: HAP (Hsp104 with the ClpA tripeptide for ClpP binding)

- stoichiometry N [6]: 6
Substance: BAP-E432A (repressed mutant)
